Measurements reported in the supplement of paper PMC11316812.
± gives the standard deviation of the averaged measurements.

Legend:
[1] = tested on: MCF7; assay: percentage of EdU-negative (G0-arrested) nuclei per well, 72 h; higher = more G0 arrest; conditions: reference: sequence is the full UniProt precursor, the tested protein was the secreted form or ectodomain
[2] = tested on: hTERT-HMEC; assay: as above; conditions: reference: sequence is the full UniProt precursor, the tested protein was the secreted form or ectodomain
[3] = protein concentration 0.0122857 µM
[4] = protein concentration 0.122857 µM
[5] = protein concentration 0.0225 µM
[6] = protein concentration 0.0357143 µM
[7] = protein concentration 0.357143 µM
[8] = protein concentration 0.03125 µM
[9] = protein concentration 0.3125 µM
[10] = protein concentration 0.007735 µM
[11] = protein concentration 0.07735 µM
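Also: secreted proteins added to cultured cells, EdU pulse at the end, nuclei found by Hoechst imaging, EdU status from nuclear versus surrounding ring intensity ratio, PBS as neutral control.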

“MKILILGIFLFLCSTPAWAKEKHYYIGIIETTWDYASDHGEKKLISVDTEHSNIYLQNGPDRIGRLYKKALYLQYTDETFRTTIEKPVWLGFLGPIIKAETGDKVYVHLKNLASRPYTFHSHGITYYKEHEGAIYPDNTTDFQRADDKVYPGEQYTYMLLATEEQSPGEGDGNCVTRIYHSHIDAPKDIASGLIGPLIICKKDSLDKEKEKHIDREFVVMFSVVDENFSWYLEDNIKTYCSEPEKVDKDNEDFQESNRMYSVNGYTFGSLPGLSMCAEDRVKWYLFGMGNEVDVHAAFFHGQALTNKNYRIDTINLFPATLFDAYMVAQNPGEWMLSCQNLNHLKAGLQAFFQVQECNKSSSKDNIRGKHVRHYYIAAEEIIWNYAPSGIDIFTKENLTAPGSDSAVFFEQGTTRIGGSYKKLVYREYTDASFTNRKERGPEEEHLGILGPVIWAEVGDTIRVTFHNKGAYPLSIEPIGVRFNKNNEGTYYSPNYNPQSRSVPPSASHVAPTETFTYEWTVPKEVGPTNADPVCLAKMYYSAVEPTKDIFTGLIGPMKICKKGSLHANGRQKDVDKEFYLFPTVFDENESLLLEDNIRMFTTAPDQVDKEDEDFQESNKMHSMNGFMYGNQPGLTMCKGDSVVWYLFSAGNEADVHGIYFSGNTYLWRGERRDTANLFPQTSLTLHMWPDTEGTFNVECLTTDHYTGGMKQKYTVNQCRRQSEDSTFYLGERTYYIAAVEVEWDYSPQREWEKELHHLQEQNVSNAFLDKGEFYIGSKYKKVVYRQYTDSTFRVPVERKAEEEHLGILGPQLHADVGDKVKIIFKNMATRPYSIHAHGVQTESSTVTPTLPGETLTYVWKIPERSGAGTEDSACIPWAYYSTVDQVKDLYSGLIGPLIVCRRPYLKVFNPRRKLEFALLFLVFDENESWYLDDNIKTYSDHPEKVNKDDEEFIESNKMHAINGRMFGNLQGLTMHVGDEVNWYLMGMGNEIDLHTVHFHGHSFQYKHRGVYSSDVFDIFPGTYQTLEMFPRTPGIWLLHCHVTDHIHAGMETTYTVLQNEDTKSG” was tested, and the “percentage of EdU-negative” value [1, 3] was 22.7 ± 3%, the “percentage of EdU-negative” value [1, 4] was 29.9 ± 0.94% and the “percentage of EdU-negative” value [2, 3] was 5.56 ± 0.7%. The “percentage of EdU-negative” value [2, 4] was 7.89 ± 0.25%.
With “MDRGTLPLAVALLLASCSLSPTSLAETVHCDLQPVGPERGEVTYTTSQVSKGCVAQAPNAILEVHVLFLEFPTGPSQLELTLQASKQNGTWPREVLLVLSVNSSVFLHLQALGIPLHLAYNSSLVTFQEPPGVNTTELPSFPKTQILEWAAERGPITSAAELNDPQSILLRLGQAQGSLSFCMLEASQDMGRTLEWRPRTPALVRGCHLEGVAGHKEAHILRVLPGHSAGPRTVTVKVELSCAPGDLDAVLILQGPPYVSWLIDANHNMQIWTTGEYSFKIFPEKNIRGFKLPDTPQGLLGEARMLNASIVASFVELPLASIVSLHASSCGGRLQTSPAPIQTTPPKDTCSPELLMSLIQTKCADDAMTLVLKKELVAHLKCTITGLTFWDPSCEAEDRGDKFVLRSAYSSCGMQVSASMISNEAVVNILSSSSPQRKKVHCLNMDSLSFQLGLYLSPHFLQASNTIEPGQQSFVQVRVSPSVSEFLLQLDSCHLDLGPEGGTVELIQGRAAKGNCVSLLSPSPEGDPRFSFLLHFYTVPIPKTGTLSCTVALRPKTGSQDQEVHRTVFMRLNIISPDLSGCTSKGLVLPAVLGITFGAFLIGALLTAALWYIYSHTRSPSKREPVVAVAAPASSESSSTNHSIGSTQSTPCSTSSMA” the “percentage of EdU-negative” value [1, 5] was 25.3 ± 2.4%, the “percentage of EdU-negative” value ([1]; protein concentration 0.225 µM) was 27.3 ± 2.9% and the “percentage of EdU-negative” value [2, 5] was 4.75 ± 0.063%. For the same sequence, the “percentage of EdU-negative” value ([2]; protein concentration 0.225 µM) was 5.33 ± 0.45%.
With “MNRFLLLMSLYLLGSARGTSSQPNELSGSIDHQTSVQQLPGEFFSLENPSDAEALYETSSGLNTLSEHGSSEHGSSKHTVAEHTSGEHAESEHASGEPAATEHAEGEHTVGEQPSGEQPSGEHLSGEQPLSELESGEQPSDEQPSGEHGSGEQPSGEQASGEQPSGEHASGEQASGAPISSTSTGTILNCYTCAYMNDQGKCLRGEGTCITQNSQQCMLKKIFEGGKLQFMVQGCENMCPSMNLFSHGTRMQIICCRNQSFCNKI” the “percentage of EdU-negative” value [1, 6] was 24.76 ± 0.1%, the “percentage of EdU-negative” value [1, 7] was 27.1 ± 1.2% and the “percentage of EdU-negative” value [2, 6] was 6.06 ± 0.83%. For the same sequence, the “percentage of EdU-negative” value [2, 7] was 9.78 ± 0.68%.
In the case of “MVLAAPLLLGFLLLALELRPRGEAAEGPAAAAAAAAAAAAAGVGGERSSRPAPSVAPEPDGCPVCVWRQHSRELRLESIKSQILSKLRLKEAPNISREVVKQLLPKAPPLQQILDLHDFQGDALQPEDFLEEDEYHATTETVISMAQETDPAVQTDGSPLCCHFHFSPKVMFTKVLKAQLWVYLRPVPRPATVYLQILRLKPLTGEGTAGGGGGGRRHIRIRSLKIELHSRSGHWQSIDFKQVLHSWFRQPQSNWGIEINAFDPSGTDLAVTSLGPGAEGLHPFMELRVLENTKRSRRNLGLDCDEHSSESRCCRYPLTVDFEAFGWDWIIAPKRYKANYCSGQCEYMFMQKYPHTHLVQQANPRGSAGPCCTPTKMSPINMLYFNDKQQIIYGKIPGMVVDRCGCS”, the “percentage of EdU-negative” value [1, 8] is reported as 24.2 ± 2.7%, the “percentage of EdU-negative” value [1, 9] is reported as 26.2 ± 3.2% and the “percentage of EdU-negative” value [2, 8] is reported as 4.52 ± 0.24%. For the same sequence, the “percentage of EdU-negative” value [2, 9] was 5.2 ± 0.9%.
With “MVAPKSHTDDWAPGPFSSKPQRSQLQIFSSVLQTSLLFLLMGLRASGKDSAPTVVSGILGGSVTLPLNISVDTEIENVIWIGPKNALAFARPKENVTIMVKSYLGRLDITKWSYSLCISNLTLNDAGSYKAQINQRNFEVTTEEEFTLFVYEQLQEPQVTMKSVKVSENFSCNITLMCSVKGAEKSVLYSWTPREPHASESNGGSILTVSRTPCDPDLPYICTAQNPVSQRSSLPVHVGQFCTDPGASRGGTTGETVVGVLGEPVTLPLALPACRDTEKVVWLFNTSIISKEREEAATADPLIKSRDPYKNRVWVSSQDCSLKISQLKIEDAGPYHAYVCSEASSVTSMTHVTLLIYRRLRKPKITWSLRHSEDGICRISLTCSVEDGGNTVMYTWTPLQKEAVVSQGESHLNVSWRSSENHPNLTCTASNPVSRSSHQFLSENICSGPERNTKLWIGLFLMVCLLCVGIFSWCIWKRKGRCSVPAFCSSQAEAPADTPEPTAGHTLYSVLSQGYEKLDTPLRPARQQPTPTSDSSSDSNLTTEEDEDRPEVHKPISGRYEVFDQVTQEGAGHDPAPEGQADYDPVTPYVTEVESVVGENTMYAQVFNLQGKTPVSQKEESSATIYCSIRKPQVVPPPQQNDLEIPESPTYENFT [Q9HBG7]” the “percentage of EdU-negative” value ([1]; protein concentration 0.02 µM) was 25.2 ± 0.84%, the “percentage of EdU-negative” value ([1]; protein concentration 0.2 µM) was 29.3 ± 0.77% and the “percentage of EdU-negative” value ([2]; protein concentration 0.02 µM) was 4.82 ± 0.27%. For the same sequence, the “percentage of EdU-negative” value ([2]; protein concentration 0.2 µM) was 7.12 ± 0.12%.
In the case of “MVSYWDTGVLLCALLSCLLLTGSSSGSKLKDPELSLKGTQHIMQAGQTLHLQCRGEAAHKWSLPEMVSKESERLSITKSACGRNGKQFCSTLTLNTAQANHTGFYSCKYLAVPTSKKKETESAIYIFISDTGRPFVEMYSEIPEIIHMTEGRELVIPCRVTSPNITVTLKKFPLDTLIPDGKRIIWDSRKGFIISNATYKEIGLLTCEATVNGHLYKTNYLTHRQTNTIIDVQISTPRPVKLLRGHTLVLNCTATTPLNTRVQMTWSYPDEKNKRASVRRRIDQSNSHANIFYSVLTIDKMQNKDKGLYTCRVRSGPSFKSVNTSVHIYDKAFITVKHRKQQVLETVAGKRSYRLSMKVKAFPSPEVVWLKDGLPATEKSARYLTRGYSLIIKDVTEEDAGNYTILLSIKQSNVFKNLTATLIVNVKPQIYEKAVSSFPDPALYPLGSRQILTCTAYGIPQPTIKWFWHPCNHNHSEARCDFCSNNEESFILDADSNMGNRIESITQRMAIIEGKNKMASTLVVADSRISGIYICIASNKVGTVGRNISFYITDVPNGFHVNLEKMPTEGEDLKLSCTVNKFLYRDVTWILLRTVNNRTMHYSISKQKMAITKEHSITLNLTIMNVSLQDSGTYACRARNVYTGEEILQKKEITIRDQEAPYLLRNLSDHTVAISSSTTLDCHANGVPEPQITWFKNNHKIQQEPGIILGPGSSTLFIERVTEEDEGVYHCKATNQKGSVESSAYLTVQGTSDKSNLELITLTCTCVAATLFWLLLTLFIRKMKRSSSEIKTDYLSIIMDPDEVPLDEQCERLPYDASKWEFARERLKLGKSLGRGAFGKVVQASAFGIKKSPTCRTVAVKMLKEGATASEYKALMTELKILTHIGHHLNVVNLLGACTKQGGPLMVIVEYCKYGNLSNYLKSKRDLFFLNKDAALHMEPKKEKMEPGLEQGKKPRLDSVTSSESFASSGFQEDKSLSDVEEEEDSDGFYKEPITMEDLISYSFQVARGMEFLSSRKCIHRDLAARNILLSENNVVKICDFGLARDIYKNPDYVRKGDTRLPLKWMAPESIFDKIYSTKSDVWSYGVLLWEIFSLGGSPYPGVQMDEDFCSRLREGMRMRAPEYSTPEIYQIMLDCWHRDPKERPRFAELVEKLGDLLQANVQQDGKDYIPINAILTGNSGFTYSTPAFSEDFFKESISAPKFNSGSSDDVRYVNAFKFMSLERIKTFEELLPNATSMFDDYQGDSSTLLASPMLKRFTWTDSKPKASLKIDLRVTSKSKESGLSDVSRPSFCHSSCGHVSEGKRRFTYDHAELERKIACCSPPPDYNSVVLYSTPPI”, the “percentage of EdU-negative” value [1, 10] is reported as 26.6 ± 3%, the “percentage of EdU-negative” value [1, 11] is reported as 28.1 ± 1.6% and the “percentage of EdU-negative” value [2, 10] is reported as 4.97 ± 0.54%. For the same sequence, the “percentage of EdU-negative” value [2, 11] was 5.7 ± 0.039%.
For “MPAVFMLASSSALQCGRGVPRFPRTEVGAGHSVNEETKAEKVGNQTSVIPATSRQAALGTSWTQRRTQPLQERSHWHPRGNNASGMGGHRMFPGPLRGPAAQVLENECGSLGRAAEGRS [Q8N2X6]”, the “percentage of EdU-negative” value [1, 5] was 24.5 ± 1.8%, the “percentage of EdU-negative” value ([1]; protein concentration 0.225 µM) was 24.7 ± 0.9% and the “percentage of EdU-negative” value [2, 5] was 4.66 ± 0.059%. The “percentage of EdU-negative” value ([2]; protein concentration 0.225 µM) was 4.77 ± 0.18%.
